Consider 125 sequences from the supplement of paper PMC9112550, “Optimization of the antimicrobial peptide Bac7 by deep mutational scanning” (BMC Biology, 2022).
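Further: peptides expressed intracellularly from a pBAD plasmid library in pooled LB shake-flask culture, induced with 0.3% L-arabinose, DNA abundance read by NGS, three biological replicates, DESeq2 with apeglm shrinkage.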

This data set deals with Escherichia coli TOP10. The experiment in a line: shrunken log2 fold change of peptide-encoding DNA abundance (4.5 h post-induction vs induction); higher = less antimicrobial activity (less host growth inhibition). The following applies: time post-induction: 4.5 h; library: site-saturation at positions 5, 18, 19, 20.
With RRIRIRPPRLPRPRPRPFYAPRP, the “shrunken log2 fold change” value was -0.251.

For RRIRRRPPRLPRPRPRPSTQPRP, the “shrunken log2 fold change” value was -0.245.

RRIRQRPPRLPRPRPRPAVQPRP: the “shrunken log2 fold change” value was determined as 0.013.

For RRIRFRPPRLPRPRPRPPYFPRP, the “shrunken log2 fold change” value worked out at 0.0621.

In the case of RRIRGRPPRLPRPRPRPGRVPRP, the “shrunken log2 fold change” value was found to be 0.554.

With RRIRDRPPRLPRPRPRPGMEPRP, the “shrunken log2 fold change” value was found to be 0.784.

With RRIRFRPPRLPRPRPRPYVRPRP, the “shrunken log2 fold change” value is -0.0985.

Regarding RRIRYRPPRLPRPRPRPAPDPRP, the “shrunken log2 fold change” value came to 0.307.

In the case of RRIRERPPRLPRPRPRPGHNPRP, the “shrunken log2 fold change” value was -0.115.

As for RRIRERPPRLPRPRPRPFTHPRP, the “shrunken log2 fold change” value was -0.0134.

For the sequence RRIRRRPPRLPRPRPRPGAEPRP, the “shrunken log2 fold change” value came to 2.68.

RRIRVRPPRLPRPRPRPCAEPRP: the “shrunken log2 fold change” value was -0.0931.

For RRIRVRPPRLPRPRPRPQSTPRP, the “shrunken log2 fold change” value is 0.00487.

As for RRIRVRPPRLPRPRPRPCNTPRP, the “shrunken log2 fold change” value was -0.586.

As for RRIRERPPRLPRPRPRPLWVPRP, the “shrunken log2 fold change” value is -0.109.

In the case of RRIRMRPPRLPRPRPRPDNKPRP, the “shrunken log2 fold change” value is -0.336.

On to RRIRNRPPRLPRPRPRPWSMPRP, for which the “shrunken log2 fold change” value was -0.0638.

In the case of RRIRFRPPRLPRPRPRPPHTPRP, the “shrunken log2 fold change” value was determined as 0.126.

With RRIRWRPPRLPRPRPRPIIRPRP, the “shrunken log2 fold change” value is -0.00231.

Take RRIRGRPPRLPRPRPRPILQPRP: the “shrunken log2 fold change” value was 0.621.

Take RRIRERPPRLPRPRPRPCLAPRP: the “shrunken log2 fold change” value is -0.526.

Consider RRIRIRPPRLPRPRPRPDPEPRP, for which the “shrunken log2 fold change” value is -0.158.

In the case of RRIRPRPPRLPRPRPRPDCPPRP, the “shrunken log2 fold change” value was -0.0368.

As for RRIRSRPPRLPRPRPRPDLGPRP, the “shrunken log2 fold change” value is 0.0168.

Consider RRIRCRPPRLPRPRPRPGPFPRP, for which the “shrunken log2 fold change” value is -0.0444.

Take RRIRCRPPRLPRPRPRPQSNPRP: the “shrunken log2 fold change” value is -0.822.

Regarding RRIRTRPPRLPRPRPRPLFRPRP, the “shrunken log2 fold change” value was -0.353.

On to RRIRGRPPRLPRPRPRPMMVPRP, for which the “shrunken log2 fold change” value turned out to be 0.294.

Take RRIRARPPRLPRPRPRPAIMPRP: the “shrunken log2 fold change” value was 0.161.

For RRIRWRPPRLPRPRPRPDVMPRP, the “shrunken log2 fold change” value was found to be 0.126.

RRIRKRPPRLPRPRPRPTAHPRP: the “shrunken log2 fold change” value came to 0.513.

In the case of RRIRFRPPRLPRPRPRPTRVPRP, the “shrunken log2 fold change” value was determined as 0.616.

For the sequence RRIRVRPPRLPRPRPRPWDTPRP, the “shrunken log2 fold change” value is 0.00866.

As to RRIRKRPPRLPRPRPRPFEMPRP, the “shrunken log2 fold change” value is 0.911.

In the case of RRIRDRPPRLPRPRPRPNMPPRP, the “shrunken log2 fold change” value is -0.497.

On to RRIRPRPPRLPRPRPRPDWSPRP, for which the “shrunken log2 fold change” value is -0.195.

RRIRNRPPRLPRPRPRPMQDPRP: the “shrunken log2 fold change” value is -0.0611.

For RRIRNRPPRLPRPRPRPYQYPRP, the “shrunken log2 fold change” value turned out to be 0.0162.

For RRIRHRPPRLPRPRPRPWTIPRP, the “shrunken log2 fold change” value was -0.0445.

With RRIRPRPPRLPRPRPRPYWGPRP, the “shrunken log2 fold change” value was -0.201.

On to RRIRKRPPRLPRPRPRPMVRPRP, for which the “shrunken log2 fold change” value was determined as 0.00145.

On to RRIRYRPPRLPRPRPRPVATPRP, for which the “shrunken log2 fold change” value was -0.281.

In the case of RRIRMRPPRLPRPRPRPSQRPRP, the “shrunken log2 fold change” value stood at 0.158.

Take RRIRNRPPRLPRPRPRPFIGPRP: the “shrunken log2 fold change” value was -0.0677.

With RRIRVRPPRLPRPRPRPCSCPRP, the “shrunken log2 fold change” value turned out to be 0.141.

With RRIRGRPPRLPRPRPRPRQWPRP, the “shrunken log2 fold change” value came to 0.585.

As to RRIRYRPPRLPRPRPRPQFKPRP, the “shrunken log2 fold change” value is -0.134.

RRIRWRPPRLPRPRPRPKESPRP: the “shrunken log2 fold change” value turned out to be 0.293.

RRIRHRPPRLPRPRPRPPQDPRP: the “shrunken log2 fold change” value was 0.0355.

For RRIRHRPPRLPRPRPRPWWIPRP, the “shrunken log2 fold change” value was -0.177.

For RRIRQRPPRLPRPRPRPKTHPRP, the “shrunken log2 fold change” value is -0.389.

On to RRIRGRPPRLPRPRPRPDYYPRP, for which the “shrunken log2 fold change” value is -0.0926.

As to RRIRVRPPRLPRPRPRPLSIPRP, the “shrunken log2 fold change” value is -0.233.

As for RRIRARPPRLPRPRPRPVRIPRP, the “shrunken log2 fold change” value was 0.00598.

Take RRIRGRPPRLPRPRPRPVIWPRP: the “shrunken log2 fold change” value is 0.886.

Regarding RRIRRRPPRLPRPRPRPCNWPRP, the “shrunken log2 fold change” value was -0.0134.

As to RRIRQRPPRLPRPRPRPSHDPRP, the “shrunken log2 fold change” value is -0.104.

Regarding RRIRLRPPRLPRPRPRPCVVPRP, the “shrunken log2 fold change” value was -0.457.

For RRIRERPPRLPRPRPRPSCYPRP, the “shrunken log2 fold change” value is -0.941.

Regarding RRIRIRPPRLPRPRPRPDTKPRP, the “shrunken log2 fold change” value is -0.188.

Take RRIRWRPPRLPRPRPRPAGCPRP: the “shrunken log2 fold change” value is 0.28.

Regarding RRIRERPPRLPRPRPRPVVMPRP, the “shrunken log2 fold change” value amounted to 0.116.

Regarding RRIRNRPPRLPRPRPRPLTHPRP, the “shrunken log2 fold change” value is -0.566.

In the case of RRIRLRPPRLPRPRPRPITMPRP, the “shrunken log2 fold change” value was -0.168.

Turning to RRIRSRPPRLPRPRPRPRNDPRP, the “shrunken log2 fold change” value was -0.181.

On to RRIRYRPPRLPRPRPRPYRIPRP, for which the “shrunken log2 fold change” value was -0.731.

With RRIRDRPPRLPRPRPRPCHMPRP, the “shrunken log2 fold change” value was found to be 0.00148.

As to RRIRTRPPRLPRPRPRPNYCPRP, the “shrunken log2 fold change” value was -0.0491.

For RRIRQRPPRLPRPRPRPHFFPRP, the “shrunken log2 fold change” value was -0.0162.

Turning to RRIRQRPPRLPRPRPRPALMPRP, the “shrunken log2 fold change” value is 0.0376.

Turning to RRIRARPPRLPRPRPRPITGPRP, the “shrunken log2 fold change” value was -0.00407.

For the sequence RRIRKRPPRLPRPRPRPWWMPRP, the “shrunken log2 fold change” value came out at 0.105.

RRIRLRPPRLPRPRPRPINLPRP: the “shrunken log2 fold change” value is -0.573.

For RRIRRRPPRLPRPRPRPIAIPRP, the “shrunken log2 fold change” value is 0.108.

With RRIRCRPPRLPRPRPRPQWSPRP, the “shrunken log2 fold change” value is -0.169.

As for RRIRVRPPRLPRPRPRPVAIPRP, the “shrunken log2 fold change” value was -0.396.

As for RRIRLRPPRLPRPRPRPGSLPRP, the “shrunken log2 fold change” value is -0.0743.

As to RRIRKRPPRLPRPRPRPTFIPRP, the “shrunken log2 fold change” value is -0.0546.

Turning to RRIRGRPPRLPRPRPRPAISPRP, the “shrunken log2 fold change” value was 0.296.

Turning to RRIRSRPPRLPRPRPRPCIHPRP, the “shrunken log2 fold change” value was -1.37.

With RRIRYRPPRLPRPRPRPHFQPRP, the “shrunken log2 fold change” value is -0.399.

Consider RRIRQRPPRLPRPRPRPFIPPRP, for which the “shrunken log2 fold change” value is -0.395.

RRIRWRPPRLPRPRPRPPKEPRP: the “shrunken log2 fold change” value came to 0.433.

Turning to RRIRTRPPRLPRPRPRPCSGPRP, the “shrunken log2 fold change” value is -0.307.

Consider RRIRKRPPRLPRPRPRPAHVPRP, for which the “shrunken log2 fold change” value is 0.03.

For RRIRHRPPRLPRPRPRPEELPRP, the “shrunken log2 fold change” value is -0.00776.

Take RRIRQRPPRLPRPRPRPWSYPRP: the “shrunken log2 fold change” value is -0.106.

Take RRIRARPPRLPRPRPRPVLYPRP: the “shrunken log2 fold change” value worked out at 0.0232.

As for RRIRYRPPRLPRPRPRPPYTPRP, the “shrunken log2 fold change” value is -0.94.

RRIRYRPPRLPRPRPRPEYPPRP: the “shrunken log2 fold change” value is -0.01.

For RRIRDRPPRLPRPRPRPDKQPRP, the “shrunken log2 fold change” value is -0.129.

For RRIRERPPRLPRPRPRPQVYPRP, the “shrunken log2 fold change” value was -0.023.

For the sequence RRIRNRPPRLPRPRPRPQWFPRP, the “shrunken log2 fold change” value is -0.0391.

For RRIRFRPPRLPRPRPRPCMGPRP, the “shrunken log2 fold change” value was -0.49.

On to RRIRRRPPRLPRPRPRPGKVPRP, for which the “shrunken log2 fold change” value is -0.037.

For the sequence RRIRFRPPRLPRPRPRPNLAPRP, the “shrunken log2 fold change” value is -0.0885.

As to RRIRIRPPRLPRPRPRPPIFPRP, the “shrunken log2 fold change” value was -0.0827.

As to RRIRHRPPRLPRPRPRPVVWPRP, the “shrunken log2 fold change” value is 0.524.

In the case of RRIRQRPPRLPRPRPRPQRNPRP, the “shrunken log2 fold change” value is -0.23.

For RRIRDRPPRLPRPRPRPSYSPRP, the “shrunken log2 fold change” value was -0.581.

With RRIRYRPPRLPRPRPRPTNAPRP, the “shrunken log2 fold change” value is -0.24.

As for RRIRPRPPRLPRPRPRPEVKPRP, the “shrunken log2 fold change” value is -0.00169.

Take RRIRVRPPRLPRPRPRPFDRPRP: the “shrunken log2 fold change” value was 0.121.

As to RRIRERPPRLPRPRPRPWHCPRP, the “shrunken log2 fold change” value is -0.0723.

RRIRCRPPRLPRPRPRPTQGPRP: the “shrunken log2 fold change” value was 0.954.

Consider RRIRTRPPRLPRPRPRPVILPRP, for which the “shrunken log2 fold change” value is -0.994.

Take RRIRGRPPRLPRPRPRPSEMPRP: the “shrunken log2 fold change” value came to 0.4.

Regarding RRIRVRPPRLPRPRPRPYSYPRP, the “shrunken log2 fold change” value turned out to be 0.128.

In the case of RRIRYRPPRLPRPRPRPMIPPRP, the “shrunken log2 fold change” value was -0.727.

With RRIRNRPPRLPRPRPRPDLHPRP, the “shrunken log2 fold change” value turned out to be 1.8.

For RRIRWRPPRLPRPRPRPIEPPRP, the “shrunken log2 fold change” value amounted to 0.0341.

On to RRIRFRPPRLPRPRPRPKTLPRP, for which the “shrunken log2 fold change” value was -0.145.

For RRIRNRPPRLPRPRPRPVTYPRP, the “shrunken log2 fold change” value was -0.168.

With RRIRFRPPRLPRPRPRPPDTPRP, the “shrunken log2 fold change” value came out at 0.254.

Turning to RRIRRRPPRLPRPRPRPWCNPRP, the “shrunken log2 fold change” value is -0.543.

RRIRRRPPRLPRPRPRPDITPRP: the “shrunken log2 fold change” value is 0.303.

As for RRIRGRPPRLPRPRPRPNNGPRP, the “shrunken log2 fold change” value was -0.363.

Consider RRIRVRPPRLPRPRPRPLVGPRP, for which the “shrunken log2 fold change” value came to 0.726.

On to RRIRQRPPRLPRPRPRPQIWPRP, for which the “shrunken log2 fold change” value was determined as 0.0984.

Regarding RRIRPRPPRLPRPRPRPWEEPRP, the “shrunken log2 fold change” value amounted to 0.148.

Consider RRIRWRPPRLPRPRPRPLSGPRP, for which the “shrunken log2 fold change” value stood at 0.34.

Regarding RRIRHRPPRLPRPRPRPPCDPRP, the “shrunken log2 fold change” value was -0.22.

Regarding RRIRQRPPRLPRPRPRPFYVPRP, the “shrunken log2 fold change” value is -0.484.

As to RRIRQRPPRLPRPRPRPLCCPRP, the “shrunken log2 fold change” value is -0.382.

Regarding RRIRWRPPRLPRPRPRPTHHPRP, the “shrunken log2 fold change” value worked out at 0.104.
